Reference: the DeepSol protein solubility set

Experiment: soluble on expression in E. coli; label from the status in PepcDB or PDB records

Soluble on expression in E. coli, soluble:
MVRSFIYEPFQIPSGSMMPTLLIGDFILVEKFAYGIKDPIYQKTLIETGHPKRGDIVVFKYPEDPKLDYIKRAVGLPGDKVTYDPVSKELTIQPGCSSGQACENALPVTYSNVEPSDFVQTFSRRNGGEATSGFFEVPKNETKENGIRLSERKETLGDVTHRILTVPIAQDQVGMYYQQPGQQLATWIVPPGQYFMMGDNRDNSADSRYWGFVPEANLVGRATAIWMSFDKQEGEWPTGLRLSRIGGIH
MSLNDSFNPNENNPAEPSMELVVNGSGINVRSDAGIEHRVVRKASNGDRYKVLAVKNGWYKVGNGEWIFYDPSWIKINYNVPKEEVQKPKEEVQKPKDDITGGWFEGHIRKLNSLGIMQGEGNGVFAPYRNVTRAEFAKLISNALKLPEGNKSFVDINEAHPSLHDGIKRCASAGIINGRGEGIFDPNSPITREEVSIMIDKALRYKGITGELVALPFTDKHLITYKESVQRLYSLKVVNGIGNNEFDPRGTATRGQAAAFIVKMLDSMQKEGHHHHHH
MLLPRCCWGRWLMGRRPRCSCQAPAGFDGKDGRGSRVREMPPWRVLFLGTDHFARETLRALHAARDGKEEKLIEKLEVVTVPSLSPKGLPVKQYAIQSQLPVYEWPDVGSGEYDVGVVASFGRLLSEALILKFPYGILNVHPSCLPRWRGPAPIIHTVLHGDTVTGVTIMQIRPKRFDIGPILQQETIPVPPKSTSKELEAVLSKLGANMLISVLKNLPESLNNGRPQPAEGVTYAPKVSAGTSCVKWEEQTSEQVLRLHLAIGDIVPLQTLWMENTVKLLDLVEVNNSILADPKLTGQTVTPGFVVYHRPSQMLLVRCKDGWIGVRSVMLKKTLTATDFYNGYLHAWYQKNSHAHPSQCRFQTLRLPTKMQQKTKLLLCNSALSS
MSLAEGGFVDDAKASFNLRNFYINRNFVDPANPQGKAEEWTQSFILDARSGFTQGTIGFGVDMLGLYSLKLDGGKGTAGTHLLPVHDDGRPADDFGRLGVALKARLSQTELKVGEWMPVLPILRSDDGRSLPQTFRGGQLTSRELDGLTLYAGQFRGNSPRNDASMEDMFMQGRTGITSDRFNFAGGEYTFNDKRTMLGLWNAQLKDIYRQQYVNLVHSQPLGEWTLGANLGYFLGKEDGSARAGDLDNRTASAMLSARYKGHTFYIGLQKVSGDDAWMRVNGTSGGTLANDSYNASFDNAKERSWQLRHDFNFVTVGLPGLTLMNRYIKGDNVHTSAVDDGKEWARETELAYVVQSGVFKDLSVKWRNSTMRRDFSSNAFDENRVIVSYPLNLLEGHHHHHH
SNAMKFLTVSDDMNFLRQVNTLVAGKGDMDSVIIGEGDAKGLGSKVLYRAKKGTPFDAVSEGILKIAGNYDYIAIGSTEVGREIAGYLSFKTGFYTATEIFSLEFNGQKAHTKRFFYGGKTVIEEESDARILTVAPGVIEAKDLGTTPEIRDLEIGQSRIKITKFV
MQDYTVHIVDDEEPVRKSLAFMLTMNGFAVKMHQSAEAFLAFAPDVRNGVLVTDLRMPDMSGVELLRNLGDLKINIPSIVITGHGDVPMAVEAMKAGAVDFIEKPFEDTVIIEAIERASEHLVALE
MQLQLICEDPSQQSHLDELAARWQLSHTDESDFALVLTAERLELRKVDEPKLGAIFVDLIGGAVGHRRKFGGGKGQAIAKAAGLNKGATPTVLDGTAGLGRDAFVLASLGCKVQMVERHPVVAALLDDGLARAKQDPEIGTWVSERMSLIHASSHDALDQLAQDREFVKPDVVYLDPMYPHPENKKKSALVKKEMRVFQSLVGADLDADGLLEPALALATKRVVVKRPDYANWLNEQKPSMAIETKKNRFDVYVKASMALEHHHHHH
MRALGQNPTNAEVLKVLGNPKSDEMNVKVLDFEHFLPMLQTVAKNKDQGTYEDYVEGLRVFDKEGNGTVMGAEIRHVLVTLGEKMTEEEVEMLVAGHEDSNGCINYEELVRMVLNG
SLANLSKERQQALLKILHYIQDGGDFTEAKKMFQESFDKVDVSEITAAERELIAQGLDPRKIQYLCNVHADVFKGNIKENAANPDFATPGHPVNTLKQENVVIKSLVNDYLLPNLKKWEKDHSEQTLSKIKQALSDLATIGKHYARKETSFFPLMTKYGITAPPQVMWGVDDKIRRLIKEANNVVNENDVDPAKLRKIIDEVSHEVLEMIFKEEEIMVPMIDEVASPADWGNVKDEEKQIGYTLINPPMNWKPKEE
MSLNLEKINELTAQDMAGVNAAILEQLNSDVQLINQLGYYIVSGGGKRIRPMIAVLAARAVGYEGNAHVTIAALIEFIHTATLLHDDVVDESDMRRGKATANAAFGNAASVLVGDFIYTRAFQMMTSLGSLKVLEVMSEAVNVIAEGEVLQLMNVNDPDITEENYMRVIYSKTARLFEAAAQCSGILAGCTPEEEKGLQDYGRYLGTAFQLIDDLLDYNADGEQLGKNVGDDLNEGKPTLPLLHAMHHGTPEQAQMIRTAIEQGNGRHLLEPVLEAMNACGSLEWTRQRAEEEADKAIAALQVLPDTPWREALIGLAHIAVQRDREGHHHHHH
MSDNLKIGLQYLTPKHALTRLAGKLASAKMGWLTTAVIKWFIKQYNVNMDEAKNPDPEAYSTFNNFFVRELEDGARPINEDDSVISHPADACVSQFGPIMDGKLVQAKGHVYSAQELLGGDEALAAEFMGGEFATLYLSPSDYHRVHMPCDATLRKMIYVPGDLFSVNPLTAENVPNLFARNERVVCIFDTEFGPMAQILVGATIVGSIETTWAETVTPPTGPAVKTWHYPLSGDDMICFKKGEEMGRFKLGSTVINLFAPNSIKFDDSMENGTPTRMGTPFAHIVKLEHHHHHH

Soluble on expression in E. coli, not soluble:
MITLYGFGTGFGLPEISPFVTKTEVQLKMAGLPYRKERAMPPASPKGQLPFIDDGGEAVADSTFIRAHIERRYGFDFDAGLSLQERAQAWAFERMIEHHVYWALVGARWVDPINFAKGPSHFFDGAPEHNREKLREDAQFRVAENYLLSGLGRHAPDDDVDLAVRSLFALSVQLGDKAYLMGNKPCGVDATAFGALAGILTPFFESGLRQRAEGFPNLTAYVDRMMDNYYPEFAWTPLRQAALEHHHHHH
MGSDKIHHHHHHMTNKNYLLYVDNEKYVLRLPGVMTSNLISRHYEMNNSILMSQAEFNVETIYFNADNGIKITKFLEKGINFNHNNIHQYEYLFLISKELYKLHHSDIQFNNEFNVFETFQQYFDLLKDKNGFFCFNKNIPLIYEFFIKISKNNSFYNIKCPCHNDLVPENILLKNNKLFFIDWEYSGMNAPLFDVAAFFLESRIPKEKQKYFLAHYDHHLDFEKSRMEILFHQFTQDVLWFLWTLIKEENNETFENYASIRINRAYELMKDLVKNEVI
MLITERIYVLEDVDVQAFLGVNNSNLMLLRTLFPKLRLVAHHNVLKIMGDSRETDRFLEVLEPMVAYCREYNLLPEDVILRIAQGAKLPADDVPKHLILHGTGGKSIIARGDNQQKLVEAFEANDLVFAIGPAGTGKTFVAISLAVRALKSKQVRRIILSRPAVEAGEKLGFLPGEMKDKLDPYLQPLYDALEEMIPAVKLKEYIENNIIQIAPLAYMRGRTLNDAVVILDEAQNTTELQMKMFLTRLGANAKMIVTGDITQTDLPRGVHSGLRQALNILQGTRGIGYIAFQRADIVRHPLVQRVVDAYDRYDAERKKEAEAAAVVAQTI
MRSEAKNQKPTAYPMKGIDDLPLHEIIEPALDITSPQVACVGIGVRAVCNYDCVYCYAGHSDKRGDMSVEQYFDVMEQAAELGVKTIIMTGAGGKSEPGLFKGLLPILERASSLGMSTAMFTNGSQFGDDKVARIHNLSAVELAHKIRELKVSLFIACETLEPDLYSNITKKPIAPFQTGLINLIAAGFIGTPGEPTSVTISSVIMRQNFEELPVLQKFAHNNGWQYICKFPTLVGSALDHPELFFSPEEAAERHSIVAELRDKPETLTVTHSGAEYCLVNQVGMSFDNLGTPLNCLSGCEITSRKDMNLKSMRLADIVLLKKHLAHQGIGNCPKKAVFYDFKQPKLEAAAFHGLS
MINVDPPTGNFPASGGNSVHNIVSESDSRLAFKVKSSNNEHYRVRPVYGFIDPKGKTKLDINRIAGPPKVDKLVIQYAEVPADETDPQAPFKAGAQQGEVIVKITAE
MGSDKIHHHHHHMTKEFTPILLGSDINVYGMARSFNEAYGIRVKALADVQLAATRYSKIVDVELHHGFSADPTFMDVMRKKMEIYKDHKEPVILIACGDGYAELLSKHKDELSKVFIVPYIEYDLLEKLISKEGFYEVAEEYGLPYPKTKIITMDDYKSGKYKDVPFQFPVELKPEDPVSWLNCQFEGRKKTFTLHDENEFEDIVTKIYTHGYTEDLILQDFIPGDDSNMRTLNAYVDKNHQVKMMCLGHPLLEDPTPQSIGNYMTILPAYDEKLYEQVQSFLEKLNYTGMANFDIKYDERDGQYKFFEINLRQGRSSFYVTLNGYNLAKWYIDDYVEDNLSDKKTVYGNKLKSKHVLWMGVPVKIFKEYAFENEAKDTAEELIHEGRYGTTVFYDKDRSLKRWLLMKYMFHNYFARYKKYYEVNKGQYFKKNK
MGSDKIHHHHHHVTQNSPRQLSLPVYLPDDETFQSYYPASGNDELIQKLQASAQGGLSSSLYIYGPVKSGRTHLMHAACALANDKDRRTLYIPLGIHASISPALFEGLESLELICIDDIDAIAGHPIWEEAIFHLYNRIAEHKDCHLIVSGKASPTEAGFLLPDLVSRMQWGLIYQLQPMADDEKLLALQRRAAMRGLQLSDEVGRFLLTRMARDLRTLFDVLDKLDKASMVHQRKLTIPFIKEMLRL
MAASTFFIPSVNVIGADSLTDAMNMMADYGFTRTLIVTDNMLTKLGMAGDVQKALEERNIFSVIYDGTQPNPTTENVAAGLKLLKENNCDSVISLGGGSPHDCAKGIALVAANGGDIRDYEGVDRSAKPQLPMIAINTTAGTASEMTRFCIITDEARHIKMAIVDKHVTPLLSVNDSSLMIGMPKSLTAATGMDALTHAIEAYVSIAATPITDACALKAVTMIAENLPLAVEDGSNAKAREAMAYAQFLAGMAFNNASLGYVHAMAHQLGGFYNLPHGVCNAVLLPHVQVFNSKVAAARLRDCAAAMGVNVTGKNDAEGAEACINAIRELAKKVDIPAGLRDLNVKEEDFAVLATNALKDACGFTNPIQATHEEIVAIYAAR
MGSDKIHHHHHHMSDPTWDGSPQYRNELLRFMPADDLALLAPHMQRCALPVRMMLVTPNIPIEAVYFIEQGIGSVVASTASGHDAEIGFIGFEGMTGSALVMGDDRAAHACFVQLEGEAIRIDAAPFNAALAASPTLRLFLLHFVNTLHTQTGCTALVNARLKLEERLARWLLMCDDRVPGESLAMTHEFLSIMLGVRRPGVTVALQLLEGRALIRSRRGEIVIRDRAGLLELANGGYGQAEAEYARLIGEIMPG
MAFLKIDNGELLKNIRQFAKKNGLTLAEVATLAGLSASAIYSWKKHTPSVGTLKEVAQVLGTSYTKLVGKDKEPTAKATNAAAVDLKKVIENKKNQFEYDGQPITNEQMKIIRNVLKSMFKTPRL
MAHHHHHHMQSSISQEKLQLMQKNFNLVDLNKDGKIAAEEFKTLLRLLGQTKTEKEMDEMVDKHFEDAPIGEEQQQDAAEAADKGGANEGTPSTAKQLGGQKNTAKTAPNHDRIKNLIAKLNNSKDEDKKKNSPNGQINRTGDVYAKNELINKKKKHINFETFLRIFLETYEEPLSVDELITSFEFFDKEKSGYLDEEKVRFILKNSEERLADEDMKLFLNSLNLRDKDKIDYVMLAKRLKNVA
MELLCHEVDPVRRAVRDRNLLRDDRVLQNLLTIEERYLPQCSYFKCVQKDIQPYMRRMVATWMLEVCEEQKCEEEVFPLAMNYLDRFLAGVPTPKSHLQLLGAVCMFLASKLKETSPLTAEKLCIYTDNSIKPQELLEWELVVLGKLKWNLAAVTPHDFIEHILRKLPQQREKLSLIRKHAQTFIALCATDFKFAMYPPSMIATGSVGAAICGLQQDEEVSSLTCDALTELLAKITNTDVDCLKACQEQIEAVLLNSLQQYRQDQRDGSKSEDELDQASTPTDVRDIDL
